Measurements published in patent US20240052052A1 (published 2024).

Target: T1, human CD24 (human, UniProt P25063 27-59, heavily glycosylated, GPI-anchored (as described in the background))
T1 chain: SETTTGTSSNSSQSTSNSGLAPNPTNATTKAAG
Assay: FACS binding; DoHH2 cells

B1: SN3 (antibody, V domains shown)
VH: QVQLKESGPGLVAPSQSLSITCTVSGFSLTSYGVHWVRQPPGKGLEWLGVIWAGGSTNYNSALMSRLSISKDNSKSQVFLKMNSLQTDDTAMYYCAVYYGYLFFAYWGQGTLVTVSA
VL: ENVLTQSPAIMSASPGEKVTMTCSASSSVSYMHWYQQKSTTSPKLWIYDTSKLASGVPGRFSGSGSGNSYSLTISSMEAEDVATYYCFQGSGYPLTFGGGTKLEIK
EC50: 1.87 nM
